Here are results for 1 protein from PMC4662854, “Structure and function of the N‐terminal domain of the human mitochondrial calcium uniporter” (EMBO Reports, 2015).

This series concerns the molecule itself. In words: cross-linking; glutaraldehyde cross-linking of MCU NTD-E in solution, in PBS and in crystallization conditions.

B1: MCU NTD-E (extended N-terminal domain of MCU, residues 75-185) (domain or fragment, human, UniProt Q8NE86-1 75-185, looked up)
chain: VTVVYQNGLPVISVRLPSRRERCQFTLKPISDSVGVFLRQLQEEDRGIDRVAIYSPDGVRVAASTGIDLLLLDDFKLVINDLTYHVRPPKRDLLSHENAATLNDVKTLVQQ
notes: mitochondrial calcium uniporter (MCU), human, NP_612366, residues 75-185; In the crystal residues 183-185 were not modelled and the imidazole ring of His170 is possibly modified by unidentified adducts; source: purified (Ni-NTA, SEC on Superdex 75) by a procedure similar to that of T4 lysozyme-MCU NTD; cloned into pColdII
For B1, the binding result is recorded as “binds”.
